Source: patent US20220323495A1 (NATIONAL RESEARCH COUNCIL OF CANADA, published 2022)
No end group written: not given here.

Tests used:
[1] = biological target: T1, wild-type human EGFR expressed on cells (U87MG overexpressing wild-type human EGFR) (human, UniProt P00533 25-645); test: flow cytometry, hybridoma supernatant on U87MG-EGFR WT cells
T1 construct: Full length wt EGFR on cells; also called U87MG-EGFR WT; U87 WT
Description: Prior to analysis, cells were plated such that they were not more than 80% confluent on the day of analysis. Unless otherwise stated, all media are kept are 4° C. and all incubations are performed on wet ice.

[2] = biological target: T2, recombinant human wild-type EGFR protein, native (human, UniProt P00533 25-645); test: ELISA on coated native recombinant antigen; Exp 1, mAb supernatant
T2 construct: Recombinant protein used as ELISA coat; also called EGFRwt; wt EGFR
Description: (§1) Pre- and post-immune sera titers of animals were assessed by ELISA on recombinant EGFRvIII protein. Unless otherwise stated, all incubations were performed at room temperature. Briefly, half-area 96-well plates (Costar #3690) were coated with 25 μl per well of immunogen at 5 μg/ml in PBS and incubated overnight at 4° C. Microplates were washed three times in PBS and blocked for 30 min with PBS containing 1% bovine serum albumin (BSA, Sigma Cat#A7030). Blocking buffer was removed and 25 μl of serial dilutions of sera samples were added. After a 2-h incubation, microplates were washed 4 times with PBS-TWEEN™ 20 0.05% and 25 μl of a 1/5,000 dilution of alkaline phosphatase conjugated F(ab′)′₂ goat anti-mouse IgG (H+L, #115-056-062, Jackson Immunoresearch, Cedarlane, Burlington, ON) in blocking buffer was added. After a 1-h incubation, microplates were washed 4 times and 25 μl of p-nitrophenyl phosphate (pNPP) substrate (Sigma-Aldrich Canada Co., Oakville, ON) at 1 mg/ml in carbonate buffer at pH 9.6 was added and further incubated for 30 min. Absorbance was read at 405 nm using a SpectraMax 340 PC plate reader (Molecular Devices, Sunnyvale, Calif.).
(§2) To evaluate if monoclonal antibodies bind to a conformational epitope, an ELISA analysis on native and denatured recombinant human wild-type EGFR and EGFRvIII proteins were performed. […] Antigens at 1-2 mg/ml were denatured by incubation at 95° C. for 5 min in PBS containing DTT at 40 mM final concentration. They were then incubated on ice for 5 min and diluted at their final coating concentration for ELISA purpose.
(§3) mAbs were purified using HiTrap ProteinG HP 1 mL columns GE Healthcare cat no. 17-0404-01 and desalted using Zeba-spin desalting columns 5 mL (Pierce) pre-equilibrated in PBS and filter sterilized through […] membrane (Millipore). The final concentration of the antibody solutions was determined using a Nano-drop 2000 (ThermoScientific), using IgG as sample type. ELISA was performed as described above (serum titer determination) using 25 μl of mAb supernatant (Exp 1) or purified mAb at 1 μg/ml (Exp 2).

[3] = biological target: T3, recombinant human EGFRvIII protein, native (human, UniProt P00533 298-623); test: as above
T3 construct: Recombinant extracellular domain used as immunogen and ELISA coat; also called EGFRvIII Native
Description: as §1, §2, §3

[4] = biological target: T4, recombinant human EGFRvIII protein, denatured (human, UniProt P00533 298-623); test: ELISA on coated denatured recombinant antigen; Exp 1, mAb supernatant
T4 construct: Same protein as m9 after denaturation (95 °C for 5 min in PBS with 40 mM DTT); also called EGFRvIII Denatured
Description: as §1, §2, §3

[5] = biological target: T2, recombinant human wild-type EGFR …; test: ELISA on coated native recombinant antigen; Exp 2, purified mAb 1 µg/ml
Description: as §1, §2, §3

[6] = biological target: T3, recombinant human EGFRvIII protein, …; test: as above
Description: as §1, §2, §3

[7] = biological target: T5, human EGFRvIII amino acid residues 1 to 18, yeast-displayed (human, not fully specified); test: yeast display; smallest EGFRvIII fragment the antibody was able to bind
T5 construct: also called aa 1-18
T5 peptide: LEEKKGNYVVTDHGSCVR
Excerpt: Assessment of the binding of anti-EGFRvIII monoclonal antibodies to the fusion proteins expressed on yeast cell surface was done by flow cytometry analysis. Yeast cells were labeled with both the anti-EGFRvIII monoclonal antibody and chicken anti-Myc antibody the latter being used to monitor the level of expression of the fusion protein. Following a wash step, binding of the primary antibodies is probed by a two-color indirect fluorescence labeling using a specific mouse and chicken secondary antibodies for each of the primary antibody respectively.

[8] = biological target: T4, recombinant human EGFRvIII protein, …; test: ELISA on coated denatured recombinant antigen; Exp 2, purified mAb 1 µg/ml
Description: as §1, §2, §3

[9] = biological target: T6, recombinant human wild-type EGFR protein, denatured (human, UniProt P00533 25-645); test: as above
T6 construct: Same protein as m11 after denaturation (95 °C for 5 min in PBS with 40 mM DTT); also called EGFRwt Denatured
Description: as §1, §2, §3

B1: F271-1D2 anti-EGFRvIII monoclonal antibody (antibody, V domains shown)
VH: DVQLQESGPDLVKPSQSLSLTCTVTGYSITSGYSWHWIRQFPGNKLEWMGYIHYSGSTNYNPSLKSRISITRDTSKNQFFLQLSSVTTEDTATYYCTRSPYFDVWGTGTTVTVSS
VL: DVVMTQTPLSLPVSLGDQASISCRSSQSLVHSDGNTYLHWYLQKPGQSPKLLIYKVSNRFSGVPDRFSGSGSGTDFTLKISRVEAEDLGVYFCSQSTHVPWTFGGGTKLEIK
notes: Mouse hybridoma IgG, tested as supernatant or Protein G purified mAb
In the case of B1, the binding result [1] is reported as “no binding”, the “ELISA absorbance (405 nm)” value [2] is reported as 0.002 A405 and the “ELISA absorbance (405 nm)” value [3] is reported as 1.49 A405. For the same binder, the “ELISA absorbance (405 nm)” value [4] was 2.55 A405, the “ELISA absorbance (405 nm)” value [5] was 0.004 A405 and the “ELISA absorbance (405 nm)” value [6] was 0.935 A405. The binding result [7] was “binds”, the “ELISA absorbance (405 nm)” value [8] was 1.05 A405 and the “ELISA absorbance (405 nm)” value [9] was 0 A405.
